Data published in the Immune Epitope Database (IEDB).

Experiments:
HLA-B*15:09 = assay: IEDB peptide-MHC binding, purified MHC/competitive/fluorescence; filed as Kd, often an IC50 or EC50 that approximates it; ≥ and ≤ were set here for values at or beyond the usual limits of such assays; details: source organism: Vaccinia virus Tian Tan
HLA-B*35:01 = assay: as above; details: source organism: Vaccinia virus Tian Tan
HLA-B*15:17 = assay: as above
HLA-A*26:02 = assay: as above; details: source organism: Vaccinia virus Tian Tan
HLA-B*39:01 = assay: as above; details: source organism: Vaccinia virus Tian Tan
HLA-A*02:01 = assay: as above
HLA-A*11:01 = assay: as above; details: source organism: Vaccinia virus Tian Tan
HLA-A*68:02 = assay: as above
HLA-A*26:01 [1] = assay: IEDB peptide-MHC binding, purified MHC/direct/fluorescence; filed as Kd, often an IC50 or EC50 that approximates it; ≥ and ≤ were set here for values at or beyond the usual limits of such assays; details: source organism: Variola virus
HLA-B*58:01 = assay: as above; details: source organism: Camelpox virus CMS
HLA-B*15:01 = assay: as above; details: source organism: Camelpox virus CMS
HLA-B*46:01 [2] = assay: as above; details: source organism: Camelpox virus CMS
HLA-A*31:01 = assay: as above; details: source organism: Camelpox virus CMS
HLA-B*57:01 [3] = assay: as above; details: source organism: Camelpox virus CMS
HLA-B*07:02 = assay: as above; details: source organism: Camelpox virus CMS
HLA-A*01:01 = assay: as above; details: source organism: Camelpox virus CMS
HLA-A*69:01 [4] = assay: as above; details: source organism: Camelpox virus CMS
HLA-B*48:01 = assay: as above; details: source organism: Camelpox virus CMS
HLA-B*27:05 = assay: as above; details: source organism: Camelpox virus CMS
HLA-A*32:01 = assay: IEDB peptide-MHC binding, purified MHC/competitive/radioactivity; filed as Kd, often an IC50 or EC50 that approximates it; ≥ and ≤ were set here for values at or beyond the usual limits of such assays; details: source organism: Vaccinia virus WR
HLA-B*15:03 = assay: as above; details: source organism: Vaccinia virus WR
HLA-C*06:02 = assay: IEDB peptide-MHC binding, purified MHC/competitive/fluorescence; filed as Kd, often an IC50 or EC50 that approximates it; ≥ and ≤ were set here for values at or beyond the usual limits of such assays; details: source organism: Rickettsia bellii RML369-C
HLA-B*83:01 = assay: as above; details: source organism: Rickettsia bellii RML369-C
HLA-B*15:02 = assay: as above; details: source organism: Rickettsia bellii RML369-C
HLA-B*45:06 = assay: as above; details: source organism: Rickettsia bellii RML369-C
HLA-B*15:42 = assay: as above; details: source organism: Rickettsia bellii RML369-C
HLA-A*68:23 = assay: as above; details: source organism: Rickettsia bellii RML369-C
HLA-B*27:20 = assay: as above; details: source organism: Rickettsia bellii RML369-C
HLA-C*05:01 = assay: IEDB peptide-MHC binding, purified MHC/direct/fluorescence; filed as Kd, often an IC50 or EC50 that approximates it; ≥ and ≤ were set here for values at or beyond the usual limits of such assays; details: source organism: Rickettsia bellii RML369-C
HLA-C*15:02 = assay: as above; details: source organism: Rickettsia bellii RML369-C
HLA-C*12:03 = assay: as above; details: source organism: Rickettsia bellii RML369-C
HLA-C*03:03 = assay: as above; details: source organism: Rickettsia bellii RML369-C
HLA-C*14:02 = assay: as above; details: source organism: Rickettsia bellii RML369-C
HLA-C*08:02 = assay: as above; details: source organism: Rickettsia bellii RML369-C
HLA-C*07:02 = assay: as above; details: source organism: Rickettsia bellii RML369-C
HLA-A*26:01 [5] = assay: IEDB peptide-MHC binding, purified MHC/competitive/fluorescence; filed as Kd, often an IC50 or EC50 that approximates it; ≥ and ≤ were set here for values at or beyond the usual limits of such assays; details: source organism: Xanthobacter autotrophicus Py2
HLA-B*18:01 = assay: as above; details: source organism: Xanthobacter autotrophicus Py2
HLA-A*29:02 = assay: as above; details: source organism: Xanthobacter autotrophicus Py2
HLA-B*46:01 [6] = assay: as above; details: source organism: Xanthobacter autotrophicus Py2
HLA-A*03:01 = assay: as above; details: source organism: Xanthobacter autotrophicus Py2
HLA-B*57:01 [7] = assay: as above; details: source organism: Xanthobacter autotrophicus Py2
HLA-A*25:01 = assay: as above; details: source organism: Xanthobacter autotrophicus Py2
HLA-A*80:01 = assay: as above; details: source organism: Xanthobacter autotrophicus Py2
HLA-B*27:03 = assay: as above; details: source organism: Xanthobacter autotrophicus Py2
HLA-B*51:01 = assay: as above; details: source organism: Xanthobacter autotrophicus Py2
HLA-A*02:12 = assay: as above; details: source organism: Xanthobacter autotrophicus Py2
HLA-A*69:01 [8] = assay: as above; details: source organism: Xanthobacter autotrophicus Py2
[9] = source organism: Vaccinia virus Tian Tan
[10] = source organism: Xanthobacter autotrophicus Py2

## WQFAIHYSF
HLA-B*15:09
  Kd: ≥ 20000 nM
HLA-B*35:01
  Kd: 922 nM
HLA-B*15:17; [9]
  Kd: 4670 nM
HLA-A*26:02
  Kd: 833 nM
HLA-B*39:01
  Kd: 604 nM
HLA-A*02:01; [9]
  Kd: ≥ 20000 nM
HLA-A*11:01
  Kd: ≥ 20000 nM
HLA-A*68:02; [9]
  Kd: ≥ 20000 nM
HLA-A*26:01 [1]
  Kd: ≥ 20000 nM
HLA-B*58:01
  Kd: ≥ 20000 nM
HLA-B*15:01
  Kd: 130 nM
HLA-B*46:01 [2]
  Kd: ≥ 20000 nM
HLA-A*31:01
  Kd: ≥ 20000 nM
HLA-B*57:01 [3]
  Kd: ≥ 20000 nM
HLA-B*07:02
  Kd: ≥ 20000 nM
HLA-A*01:01
  Kd: ≥ 20000 nM
HLA-A*69:01 [4]
  Kd: ≥ 20000 nM
HLA-B*48:01
  Kd: 160 nM
HLA-B*27:05
  Kd: 277 nM
HLA-A*32:01
  Kd: 2.75 nM
HLA-B*15:03
  Kd: 4.47 nM

## FAYKTGSSM
HLA-C*06:02
  Kd: 125 nM
HLA-B*83:01
  Kd: ≥ 5000 nM
HLA-B*15:02
  Kd: 12.7 nM
HLA-B*45:06
  Kd: ≥ 5000 nM
HLA-B*15:42
  Kd: ≥ 5000 nM
HLA-A*68:23
  Kd: 51.2 nM
HLA-B*27:20
  Kd: 23.4 nM
HLA-C*05:01
  Kd: 1480 nM
HLA-C*15:02
  Kd: 4 nM
HLA-C*12:03
  Kd: ≤ 1 nM
HLA-C*03:03
  Kd: ≤ 1 nM
HLA-C*14:02
  Kd: 114 nM
HLA-C*08:02
  Kd: 90 nM
HLA-C*07:02
  Kd: 876 nM

## GQMYNMNTL
HLA-B*15:17; [10]
  Kd: ≥ 20000 nM
HLA-A*26:01 [5]
  Kd: ≥ 20000 nM
HLA-B*18:01
  Kd: ≥ 20000 nM
HLA-A*29:02
  Kd: ≥ 20000 nM
HLA-B*46:01 [6]
  Kd: ≥ 20000 nM
HLA-A*03:01
  Kd: ≥ 20000 nM
HLA-B*57:01 [7]
  Kd: ≥ 20000 nM
HLA-A*25:01
  Kd: ≥ 20000 nM
HLA-A*80:01
  Kd: ≥ 20000 nM
HLA-B*27:03
  Kd: ≥ 20000 nM
HLA-B*51:01
  Kd: ≥ 20000 nM
HLA-A*02:01; [10]
  Kd: ≥ 20000 nM
HLA-A*02:12
  Kd: 1.4 nM
HLA-A*68:02; [10]
  Kd: ≥ 20000 nM
HLA-A*69:01 [8]
  Kd: ≥ 20000 nM
